This test addresses Gankyrin (Gank) (UniProt Q9Z2X2). In words: Gank IP, C/EBPα Western blot. Conditions: reference: wild-type mice, DEN-treated; sites S193. On the technique in general: A western blot detects proteins with antibodies after separation by electrophoresis.

Regarding “C/EBPα (from UniProt P53566) C/EBPα-S193A mice, DEN-treated”, the “binding against the reference” value is on record as “lost”.

For the origin of these results see PMC8221081.
